Experimental data from article PMC3891853.

Experiments:
[1] = target: Hsc70/Hsp70; test: co-immunoprecipitation with anti-Flag agarose, densitometry of co-precipitated Hsc/Hsp70; conditions: HEK293 cells, transient transfection; mean + SEM, N = 3; parent: 100; read off a plot
[2] = target: HA-tagged glucocorticoid receptor (GR) (UniProt P04150); test: co-immunoprecipitation with anti-Flag agarose, Western blot densitometry; conditions: HEK293 cells, transient transfection, mean + SEM, N = 3, parent: 100, read off a plot
Chain of UniProt P04150 (P04150 whole entry): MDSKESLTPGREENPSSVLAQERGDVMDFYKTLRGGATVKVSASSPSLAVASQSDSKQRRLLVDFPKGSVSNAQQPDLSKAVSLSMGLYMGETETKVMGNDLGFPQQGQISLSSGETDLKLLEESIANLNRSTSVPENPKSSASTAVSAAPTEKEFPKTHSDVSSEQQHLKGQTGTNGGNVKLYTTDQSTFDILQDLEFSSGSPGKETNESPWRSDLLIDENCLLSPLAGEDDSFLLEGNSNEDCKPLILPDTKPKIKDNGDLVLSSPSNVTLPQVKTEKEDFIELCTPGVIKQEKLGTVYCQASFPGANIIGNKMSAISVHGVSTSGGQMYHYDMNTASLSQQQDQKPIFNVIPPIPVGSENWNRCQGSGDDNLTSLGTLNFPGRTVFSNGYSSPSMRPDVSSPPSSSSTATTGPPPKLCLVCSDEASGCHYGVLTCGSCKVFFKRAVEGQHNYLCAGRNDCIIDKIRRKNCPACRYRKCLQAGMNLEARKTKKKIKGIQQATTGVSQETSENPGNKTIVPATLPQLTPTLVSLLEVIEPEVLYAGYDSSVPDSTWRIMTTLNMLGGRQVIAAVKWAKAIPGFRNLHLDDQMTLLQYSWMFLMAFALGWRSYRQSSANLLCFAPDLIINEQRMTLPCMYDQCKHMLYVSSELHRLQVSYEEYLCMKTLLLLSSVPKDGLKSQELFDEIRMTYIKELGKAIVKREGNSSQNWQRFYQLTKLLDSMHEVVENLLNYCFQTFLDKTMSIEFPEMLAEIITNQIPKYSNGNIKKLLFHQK

[3] = target: Hsc70, in vitro translated and labeled (UniProt P11142)
Chain of UniProt P11142 (P11142 whole entry): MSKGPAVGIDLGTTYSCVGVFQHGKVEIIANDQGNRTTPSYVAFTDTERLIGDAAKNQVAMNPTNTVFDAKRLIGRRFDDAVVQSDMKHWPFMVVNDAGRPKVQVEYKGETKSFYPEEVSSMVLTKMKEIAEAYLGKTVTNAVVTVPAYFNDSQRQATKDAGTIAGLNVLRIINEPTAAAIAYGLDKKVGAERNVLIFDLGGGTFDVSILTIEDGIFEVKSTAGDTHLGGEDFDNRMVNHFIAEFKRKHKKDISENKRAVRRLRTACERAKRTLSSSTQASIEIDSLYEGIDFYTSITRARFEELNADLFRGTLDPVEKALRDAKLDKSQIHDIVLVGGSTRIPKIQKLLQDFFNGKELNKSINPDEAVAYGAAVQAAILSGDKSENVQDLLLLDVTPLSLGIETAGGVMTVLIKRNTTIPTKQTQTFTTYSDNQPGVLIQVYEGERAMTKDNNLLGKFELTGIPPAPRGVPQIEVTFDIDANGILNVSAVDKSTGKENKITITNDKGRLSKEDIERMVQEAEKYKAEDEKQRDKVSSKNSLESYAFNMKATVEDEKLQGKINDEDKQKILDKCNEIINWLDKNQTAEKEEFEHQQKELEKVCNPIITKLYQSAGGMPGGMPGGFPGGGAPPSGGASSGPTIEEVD

| percent of parent (% (BAG-1M = 100%)) [1] | percent of parent (% (BAG-1M = 100%)) [2] | ATPase activity of purified Hsc70 with DJA2 and HspBP1 mut (each 4 µM, 30°C) [3] [min⁻¹] | Molecule |
| --- | --- | --- | --- |
| 6 | 18 | – | Flag-tagged wild-type Bcl2-associated athanogene 1, medium isoform (BAG-1M) R237A |
| – | – | 7.26 | purified HspBP1_mut (A137R, K249A; His-tagged) (natural protein) MSDEGSRGSRLPLALPPASQGCSSGGGGGGSSAGGSGNSRPPRNLQGLLQMAITAGSEEPDPPPEPMSEERRQWLQEAMSAAFRGQREEVEQMKSCLRVLSQPMPPTAGEAEQAADQQEREGALELLADLCENMDNRADFCQLSGMHLLVGRYLEAGAAGLRWRAAQLIGTCSQNVAAIQEQVLGLGALRKLLRLLDRDACDTVRVKALFAISCLVREQEAGLLQFLRLDGFSVLMRAMQQQVQKLKVASAFLLQNLLVGHPEHKGTLCSMGMVQQLVALVRTEHSPFHEHVLGALCSLVTDFPQGVRECREPELGLEELLRHRCQLLQQHEEYQEELEFCEKLLQTCFSSPADDSMDR |
